Positions count from the first letter of the chain named. Names may count otherwise.

T1: EsCas13d, nuclease-dead (Eubacterium siraeum, UniProt B0MS50, R295A;H300A;R849A;H854A)
T1 sequence: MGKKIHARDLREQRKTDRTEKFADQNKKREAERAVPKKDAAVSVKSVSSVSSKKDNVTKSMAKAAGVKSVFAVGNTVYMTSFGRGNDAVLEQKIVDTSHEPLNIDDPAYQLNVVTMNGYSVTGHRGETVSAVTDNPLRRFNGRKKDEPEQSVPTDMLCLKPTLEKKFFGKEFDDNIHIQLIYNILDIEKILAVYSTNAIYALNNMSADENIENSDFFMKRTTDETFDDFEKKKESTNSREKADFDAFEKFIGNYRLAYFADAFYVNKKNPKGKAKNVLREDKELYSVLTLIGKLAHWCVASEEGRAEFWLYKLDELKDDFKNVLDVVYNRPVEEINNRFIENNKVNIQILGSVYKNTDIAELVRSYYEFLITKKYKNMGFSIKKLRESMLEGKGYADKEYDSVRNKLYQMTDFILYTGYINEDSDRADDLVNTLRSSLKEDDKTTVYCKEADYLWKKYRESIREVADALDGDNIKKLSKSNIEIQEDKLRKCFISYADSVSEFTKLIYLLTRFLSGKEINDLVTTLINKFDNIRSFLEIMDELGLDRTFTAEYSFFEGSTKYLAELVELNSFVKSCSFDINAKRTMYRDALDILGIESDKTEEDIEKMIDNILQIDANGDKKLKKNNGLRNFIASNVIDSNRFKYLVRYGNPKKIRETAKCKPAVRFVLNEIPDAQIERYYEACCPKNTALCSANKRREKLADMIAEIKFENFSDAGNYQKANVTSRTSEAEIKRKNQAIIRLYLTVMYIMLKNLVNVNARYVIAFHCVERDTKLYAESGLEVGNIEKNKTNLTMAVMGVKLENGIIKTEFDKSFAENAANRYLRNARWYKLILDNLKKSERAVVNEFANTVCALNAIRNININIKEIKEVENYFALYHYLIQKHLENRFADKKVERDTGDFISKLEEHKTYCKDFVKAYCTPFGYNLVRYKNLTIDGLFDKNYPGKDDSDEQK

B1: target 1 insU 3' of 20,insU 3' of 5 (mixed)
RNA 1: CACCCGUGCAAAAAUGCAGGGGUCUAAAACUGAGCGGAUAACCUCUCUAUGG
RNA 2: GGGAAUGGAUCCACAUCUACGAAUUCGUACCAUUAGAGAGGUUAUCCGUCUCACCGAGAUCGGAAGAGCACACGU
B2: target 1 insG 3' of 9,insG 3' of 8 (mixed)
RNA 1: B1 RNA 1
RNA 2: GGGAAUGGAUCCACAUCUACGAAUUCGUACCAUAGAGAGGUUAGUGCCGCUCACCGAGAUCGGAAGAGCACACGU
B3: target 1 G12A,G17A (mixed)
RNA 1: B1 RNA 1
RNA 2: GGGAAUGGAUCCACAUCUACGAAUUCGUACCAUAAAGAGAUUAUCCGCUCACCGAGAUCGGAAGAGCACACGU
B4: target 1 insC 3' of 3,insA 3' of 2 (mixed)
RNA 1: B1 RNA 1
RNA 2: B2 RNA 2 with G44U, U45C, G46C, C47G, G49U, U51C, C52A
B5: target 1 insA 3' of 15,insA 3' of 13 (mixed)
RNA 1: B1 RNA 1
RNA 2: B2 RNA 2 with G39A, U41A, U42G, A43U, G44U, U45A, G46U
B6: target 1 A9G,G13U (mixed)
RNA 1: B1 RNA 1
RNA 2: B3 RNA 2 with A35G, G39U, A40G, A43G
B7: target 1 C2U,U3C (mixed)
RNA 1: B1 RNA 1
RNA 2: B3 RNA 2 with A35G, A40G, U49C, C50U
B8: target 1 U3C,U8A (mixed)
RNA 1: B1 RNA 1
RNA 2: B3 RNA 2 with A35G, A40G, U44A, U49C
B9: target 1 insA 3' of 21,insG 3' of 18 (mixed)
RNA 1: B1 RNA 1
RNA 2: GGGAAUGGAUCCACAUCUACGAAUUCGUACCAAUAGGAGAGGUUAUCCGCUCACCGAGAUCGGAAGAGCACACGU
B10: target 1 C4G,U8A (mixed)
RNA 1: B1 RNA 1
RNA 2: B3 RNA 2 with A35G, A40G, U44A, C48G
B11: target 1 insC 3' of 20,insA 3' of 7 (mixed)
RNA 1: B1 RNA 1
RNA 2: B1 RNA 2 with U33C, C47A, G48C, U49G
B12: target 1 complement block 1-12 (mixed)
RNA 1: B1 RNA 1
RNA 2: GGGAAUGGAUCCACAUCUACGAAUUCGUACCAUAGAGAGCAAUAGGCGAGUCCGAGAUCGGAAGAGCACACGU
B13: target 1 G13A,U19G (mixed)
RNA 1: B1 RNA 1
RNA 2: B3 RNA 2 with U33G, A35G, G39A, A40G
B14: target 1 C7G,A16U (mixed)
RNA 1: B1 RNA 1
RNA 2: B3 RNA 2 with A35G, A36U, A40G, C45G
B15: target 1 A1U,C21A (mixed)
RNA 1: B1 RNA 1
RNA 2: B3 RNA 2 with C31A, A35G, A40G, A51U
B16: target 1 insC 3' of 15,insG 3' of 2 (mixed)
RNA 1: B1 RNA 1
RNA 2: B1 RNA 2 with U34A, A35G, G36A, A37G, G38C, U49C, C50U, U51C, C52G
B17: target 1 insU 3' of 13,insG 3' of 10 (mixed)
RNA 1: B1 RNA 1
RNA 2: B2 RNA 2 with G40U, U41G, A43U, U45A, G46U
B18: target 1 A1G,C21A (mixed)
RNA 1: B1 RNA 1
RNA 2: B3 RNA 2 with C31A, A35G, A40G, A51G
B19: target 1 insG 3' of 11,insA 3' of 8 (mixed)
RNA 1: B1 RNA 1
RNA 2: B2 RNA 2 with U42G, A43U, G44A, G46A
B20: target 1 C6U,U10C (mixed)
RNA 1: B1 RNA 1
RNA 2: B3 RNA 2 with A35G, A40G, U42C, C46U
B21: target 1 insC 3' of 9,insG 3' of 9 (mixed)
RNA 1: B1 RNA 1
RNA 2: B2 RNA 2 with G44C, U45G, G46U
B22: target 1 C2A,C6U (mixed)
RNA 1: B1 RNA 1
RNA 2: B3 RNA 2 with A35G, A40G, C46U, C50A
B23: target 1 complement block 3-6 (mixed)
RNA 1: B1 RNA 1
RNA 2: B3 RNA 2 with A35G, A40G, C46G, G47C, C48G, U49A
B24: target 1 insG 3' of 18,insG 3' of 4 (mixed)
RNA 1: B1 RNA 1
RNA 2: B1 RNA 2 with U34A, A35G, U49C, C50G
B25: target 1 insG 3' of 22,insC 3' of 13 (mixed)
RNA 1: B1 RNA 1
RNA 2: B9 RNA 2 with C31G, A32C, G37A, A38G, G39A, A40G, G41C
B26: target 1 C7A,A9U (mixed)
RNA 1: B1 RNA 1
RNA 2: B3 RNA 2 with A35G, A40G, A43U, C45A
B27: target 1 insC 3' of 16,insG 3' of 6 (mixed)
RNA 1: B1 RNA 1
RNA 2: B1 RNA 2 with U34A, A35G, G36A, A37C, U49G
B28: target 1 complement block 2-12 (mixed)
RNA 1: B1 RNA 1
RNA 2: B12 RNA 2 with U51A
B29: target 1 C2G,G13U (mixed)
RNA 1: B1 RNA 1
RNA 2: B3 RNA 2 with A35G, G39U, A40G, C50G
B30: target 1 A9G,G15C (mixed)
RNA 1: B1 RNA 1
RNA 2: B3 RNA 2 with A35G, G37C, A40G, A43G
B31: target 1 C6G,U10A (mixed)
RNA 1: B1 RNA 1
RNA 2: B3 RNA 2 with A35G, A40G, U42A, C46G

The series deals with T1, EsCas13d, nuclease-dead. The series can be described thus: crRNA (strand 1, pre-loaded); Mg2+; 40 mM Tris-HCl pH 7.5, 150 mM NaCl, 6 mM MgCl2, 1 mM DTT, 0.1% Tween-20, 0.2 mg/ml BSA; 25 C; 10 min per concentration, then washed. Particulars: tags: His6-TwinStrep-SUMO cleaved; N-terminal SNAP kept (SNAP-Surface 488); label: 3' end held by stalled T7 RNA polymerase.
B1: binding was put at a Kd of 24 ± 4 nM. The figure for B2 is 17.2 ± 1.3 nM; for B3 it is 30.8 ± 3.2 nM; for B4 it is 13.6 ± 1.2 nM.

The molecule B5 had a Kd of 5.63 ± 0.28 nM. In turn, B6 gave a Kd of 53 ± 6 nM. As for B7, the figure is 16.6 ± 1.7 nM; as for B8, 18.7 ± 1.5 nM. As for B9, the figure is 77 ± 20 nM; as for B10, 7.4 ± 0.4 nM; as for B11, 7.49 ± 0.35 nM. The figure for B12 is 19.6 ± 1 nM. For the molecule B13, binding was characterised by a dissociation constant (Kd) of 80 ± 40 nM. As for B14, the figure is 53 ± 4 nM. The figure for B15 is 25.3 ± 3.1 nM; for B16 it is 17.9 ± 1.3 nM; for B17 it is 63 ± 23 nM. As for B18, the figure is 27 ± 4 nM. As for B19, the Kd was determined as 40.5 ± 2.5 nM. This Kd lies about 1.5-fold higher than the previous one.

B20 returned a Kd of 19.7 ± 0.8 nM. This Kd lies about 2.1-fold lower than the previous one. As for B21, the figure is 18.5 ± 1.2 nM; as for B22, 5.88 ± 0.27 nM; as for B23, 5.84 ± 0.3 nM. As for B24, the figure is 37.5 ± 3.1 nM.

Take B25: the Kd came out at 44 ± 6 nM. As for B26, the figure is 7.5 ± 0.4 nM; as for B27, approximately 100 nM. As for B28, the figure is 23.4 ± 1.6 nM.

As for B29, the Kd is approximately 60 nM. As for B30, the figure is 67 ± 20 nM; as for B31, 8.6 ± 0.6 nM.

For the origin of these results see publication PMC10786891, “Massively parallel profiling of RNA-targeting CRISPR-Cas13d”.
